Molecular target: stressed NISTmAb monoclonal antibody
Assay: AUC; sedimentation velocity at 50,000 rpm and 20 °C; c(s) analysis in SEDFIT (command line operated, and repeated manually on the same data); stressed, partially denatured sample

Substance: stressed NISTmAb monoclonal antibody
- percent of signal in higher aggregates (command line analysis): 51.8%
- percent of signal in higher aggregates (manual analysis of the same data): 51.7%
- percent of signal in the dimer peak: 12.5%
- stoichiometry N: 2

Source: paper doi:10.1101/2023.05.14.540690
